For 2 substances, percent of particles with cargo and percent of encapsulins with apparent cargo results are on record in PMC9309400.

In assay [1] the target is Family 2B encapsulin from S. griseus (Q54255), expressed in S. coelicolor (S. griseus). In words: cryo-EM 2D class averages.
Assay [2] concerns the target Family 2B encapsulin from S. griseus, expressed in E. coli (S. griseus). In words: cryo-EM 2D class averages.

In assay [1], “cargo protein of the encapsulin (A0A2X2LWM5), expressed in S. coelicolor (natural protein)” yielded a percent of particles with cargo of 96%.

For the substance “cargo protein of the Family 2B encapsulin from S. griseus, expressed in E. coli (natural protein)”, the percent of encapsulins with apparent cargo in assay [2] was 34%.
